From the DeepSol protein solubility set

Assay: soluble on expression in E. coli; label from the status in PepcDB or PDB records

SLPYRGTLVMLMNEEVNKIITLCGKDWAKIGVEFIFLGGKQECENCKIKKTCLKLKEGAKYKIVGLRDGAVQECPLHDEGVVAVEVVELPIIALVDSKIAVEGAKIHYEQRKCDVYDCSMYSLCHPIELNNGETVIVEKVIGDAPEQCRKGHSVIVAELRRAEE
soluble on expression in E. coli: soluble

RPFMQKRAQKALPHVSTGADALVGRKVLVTETIDPTTDKGRVAVDGDVWTARSLTGEVIEKGMRVEIVSYESIVLNVVVLGNDKQ
soluble on expression in E. coli: not soluble

MYLLLSLALVCTAAASSGYGIPANDDPSYSPPANDNPSYSAPANSDNRLYYDYSSRSSSSSSDSSEERECRKLREFDLPSELKSIGVKAKFSEMERRGKTYTTISCPSNTKTYAIIADKSGSNVSQGDITIQDAVLLATGVNIDVVGRCRGRRTTVVANNGDEVKIKTVVCVELSTSPDKY
soluble on expression in E. coli: not soluble

MGLFDRLRAGLAKTRERLLKAIPWGGDPEEVLEELEMALLAADVGVAATEELLKEVRASGRRDLKEVVKEKLVQMLEPDERRATLRKLGFRPQKLRPVEPQGHVVMVVGVNGVGKTTTIAKLGRLYQGLGKKVLFCAGDTFRAAGGAQLAEWGKRLGIPVIQGPEGADPAALAFDAAKARRARGLDLLFVDTAGRLHTKQGLMEELKKVKRAIAKADPGEPGEVWLVLDAVTGQNGLEQAKRFHEAVGLTGVIVTKLDGTAKGGVLVPIVRTLKVPIRFIGVGEGPDDLQPFDAEAFVEALLEA
soluble on expression in E. coli: soluble

MFCTFFEKHHRKWDILLEKSTGVMEAMKVTSEEKEQLSTAIDRMNEGLDAFIQLYNESEIDEPLIQLDDDTAELMKQARDMYGQEKLNEKLNTIIKQILSISVSEEGEKE
soluble on expression in E. coli: soluble

MGSDKIHHHHHHMTKHNKAYKFRLYPTGDQAHLMRKTFGCVRFVYNRMLAERKEAYEKHKDDKEQLKKQKLPTPAKYKAEFEWLKEVDSLALANAQLNLQTAYKNFFRGQNDFPTFKSKKDRKSYTTNVVNGNIMLLNGHIKLPKLKMVRIKQHREIPQDHVIKSCTISMTPTGKYYVSILTEYEKEIVQNEVETVVGLDFAMDRLYVSSEDERANYPKFYREMLDRLAKAQRVLSRRTKGSIRWNKQRIRVAKLHEKVANQRKNFLHHKSKELATHFDVVAIEDLNMKGMSQALHFGKSVADNAWGMFTSFLAYKLHEQGKQLMKIDKWFPSTKTCSSCGNVKNMSLSERVYSCICGVNLDRDYNAAINIKNEAIRLLALA
soluble on expression in E. coli: not soluble

MYADRDLPGAGGLAVRVIPCLDVDDGRVVKGVNFENLRDAGDPVELAAVYDAEGADELTFLDVTASSSGRATMLEVVRRTAEQVFIPLTVGGGVRTVADVDSLLRAGADKVAVNTAAIACPDLLADMARQFGSQCIVLSVDARTVPVGSAPTPSGWEVTTHGGRRGTGMDAVQWAARGADLGVGEILLNSMDADGTKAGFDLALLRAVRAAVTVPVIASGGAGAVEHFAPAVAAGADAVLAASVFHFRELTIGQVKAALAAEGITVR
soluble on expression in E. coli: not soluble

MREVLYRSDIYVFGRYPMSSFIGYPGLSSSSFCTHINFFYASSCTSTARVFRKKWREIFFVLARKNFTSRAKSKIFPRHVFRDMNKEIFRTQTI
soluble on expression in E. coli: not soluble

QEARTGNDIAQLPAISVTGREISDLTEGTNAYTTEAMSTATGLTLSPRETPQSVSVVTRQQIEDQGLTDTGAILATAPGISVTRSDSNRYSFSARGFTIDNFQFDGLVSPILSQWNYGSTDMDAAIYDHVEIVRGATGLMTGSGNPSAAVNFVRKRPLREFAATFNASVGSWDYVRGDADISVPITEDGRIRSRLVAAYSQGDSYVHFLDTRRRTFYGVVSADLTPDTVLTTSVEYQHNHSNGFGSGFPLFYSDGSRTDFNRSVANNAPWARQDTEATTYFVDLTHRFTNDWKLRAAYSHTDGRYLMKHVYRGGYPDRHTGIIAAPPAFSNYDGNLDRDDIHFSLSAPFEAFGLRHEVALGWMSIDNHSDIQRYAMVGPAPAIGSFFDWRRAGSHHHHHHHIQEPSWADTLSPADDVRTKQTGAYLVGRFALAEPLHLIVGDRWSDWKTKQMYFGSRREYRIKNQFTPYAGLTYDINDTYTAYASYTEIFQPQNARDTSGGILPPIKSKSYELGLKAAYLEGRLNTSAALFQTRQDNLAQVIPGSSIPGFPNMQASRAASGAKVEGIDLEASGQILPDWNIGASYTHFTTKDASGNPINTNHPRSLFKLYTTYRLPGALHRLTVGGGVDWQSRMYQAAASPRGNVEVEQDSYALVSLMARFDFNKKLSATLNVNNLFDKKYYDQIGFYSQGWWGAPRNVMLNLRAQY
soluble on expression in E. coli: soluble

MSLSKNRNIIEGRILSFDKSPFSKDFDLSSLKIDKKRIFIIDGIIESIEPVNFINPEFQDIEIIDYGDHLISAGFVDAHVHYPQTAIVASWGKRLIDWLNTYTFPEEMRFSNLNYASEIAARYIDFSLSNGTTTMASYCTIHPESVDAFFKSAAVKNMCVVGGKTCMDRNAPGDLCDSAKSAYDDSKALLQKWHHKGRAHYAITPRFSPTSTPDQLLALGSLWSEFPGCLMQTHLSEQVDEIDWVRKLFPNARDYLDTYETFGLLGERGVYGHAIHLEAREIDRLSEVGASLIHCPTSNTFIGSGLFNMEDLTSRSLKVGLASDIGGGSSFSMLRTMAGAYEVAQLRGLALHPSQLMWLATQGSAKALHLDNQIGNIAPGMAADLVVLDLSSTPTISQRSARANDVWEELFPTIMMGDDRAIAATYVAGKKIEGHHHHHH
soluble on expression in E. coli: soluble

MNRISFNSFSNMHSLLSSKFQEHYNDIYDWNGNIENIYKANTFISIGYKLLYPLGVLEANFDKEKLKKFLFRICSYYNDIPYHTSLHAAQVAHFSKSMLFMLDMNHKISAIDEFCLHISSLCHDTGHPGLNNYFLINSENNLALTYNDNSVLENYHCSLLFKTLKNPNYNIFEHYPYHIFISCKKNIIKAILSTDMKNHFEYISDFRTSKEFIDYDNLSNDQIWQIFCLILKASDIGHSTLEWNKHLEWTLKINEEFYLQGLLEKSLNIQNSFLCDINTMNKLALSQIDFLKHLCIPLFNELNYICKNNDVYTHCIQPIENNIERWESHKND
soluble on expression in E. coli: soluble

MGSDKIHHHHHHAQQAPAPCGLVPSARQLEWYNREMIAFFHFGINTFEEYVNEGDGKASTAIFNPTALDCRQWMQTLKAAGIPAAILTAKHADGFCLWPSKYTDYSVKNAAWKNGKGDVVREFVDACEEYGLKAGIYLGPHDRHEHLSPLYTTERYKEYYAHQLGELMSDYGKIWETWWDGAGADELTTPVYRHWYKIVREKQPDCVIFGTKNSYPFADVRWMGNEAGEAGDPCWATTDSVAIRDEAQYYKGLNEGMLDGDAYIPAETDVSIRPSWFYHAEEDSRVKSVRELWDIYCTSVGRNSVLLLNFPPDRRGLIHSTDSLHAALLKQGIDETFSTNLLRGAKVKATNVRGAKYSPEKMLDNEKNTYFAGKDGEVKADIIFTLPKTIEFDCLMIEEVIELGHRTTKWSVEYTVDGKNWITIPEATDKQAIGHKWIVRLAPVKAKQVRLRIQDGKACPAIHTFGVYKQSPVFKL
soluble on expression in E. coli: not soluble

MDYSSSLPQSDRSTSTAAGHWVLARAGKRVLRPGGLKLTKRMLSAADMQGKEIVEFAPGLGRTAQLIVTEGVSSYVGVDQDSAAVARVEAIVKPHGGTVINAKAHDTGLSGESAEVVVGEAMLTMQGEKAKAEIVAEAFRLLKPGGYYAIHELGLTPNDIDPELADGLRKQLAQTIRVNARPLTENEWRTVLTNAGFEVEWISFAPMALLSPKRNLADEGFLGVVRIIRNLIRDKALRARVFQMRSTFNKYRDHLTGIAIVAKKPSN
soluble on expression in E. coli: not soluble

MFSQNPYESHVDVAVSAASANLRNMTNEQLISLLDDDALLESIIVNLPQVRSMPTDKESALAANKSLAEWNLAQKPRIDAAKTQTVDLYDQVKKLQGEVAVLKSQLDSVSSSKSLDTTSSLMQVAAQEADDDAEALFTQFENGEISVEIFLKQFKDKKTIAHLRKIKSDRLAALLREQTYSSYAQPTVPPPMPHAQPGYPTGNHMPGIGNIQFGSGYSGYPNISQPSAGRHPFF
soluble on expression in E. coli: not soluble

MSRGLLEACIEFIRETPAGDALRIVAYEFTFKRILLELKAALERGVDVRIVYHATTANEKAIADAKLPENSKGVQILFKRTRPQTPHNKFIVRLKKGKTPVSVWTGSTNFTPSGFLGQTNVGHKVTDGDIAKIYLQLWEGLKADPDDFDATQLEHHHHHH
soluble on expression in E. coli: not soluble

MDKFKSMTELKELTKEGKDWEIECENRSSIVTILALHGGGIEPATTELAYTIAHCGDYNYFSFKGMRSKGNNELHVTSTHYDDQIALDLVRGSQRTVAIHGCEGNESVAYIGGSDDRLIELITESLEDIGISVREAPHHISGTQENNIVNMTQTQGGVQLELTAQLRKELFKNRKSSLEHHHHHH
soluble on expression in E. coli: not soluble
